Experimental data published in patent US7105306 (University of Pennsylvania, dated 2006).

Molecular target: prolactin (PRL), human, untagged (serum PRL; PRL used in cell cultures) (human, UniProt P01229)
Experiment: cell-based or functional assay

B1: His-tagged cyclophilin B (CypB), recombinant, purified from Drosophila S2 cells (enzyme, not shown: small tags and cut ends)
chain: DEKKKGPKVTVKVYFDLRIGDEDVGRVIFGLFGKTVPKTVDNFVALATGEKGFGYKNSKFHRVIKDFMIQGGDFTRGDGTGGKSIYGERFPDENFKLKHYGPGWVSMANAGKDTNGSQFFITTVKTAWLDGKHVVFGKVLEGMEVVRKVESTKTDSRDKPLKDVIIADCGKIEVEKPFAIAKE
PRL-driven growth of Nb2 cells (3H-thymidine): ≤ 8 fold
